In the assay the target is SAM complex (Sorting and Assembly Machinery complex) from Myceliophthora thermophila: Sam50, Sam35 and Sam37 (Myceliophthora thermophila). As to the kind of experiment: cryo-EM structure; SAM complex in detergent GDN (0.02%), 20 mM HEPES pH 8.0, 150 mM NaCl; monomer and three dimer conformations, 3.0-3.9 Å; the authors call the dimers non-physiological.

One may read the stoichiometry N as the number of molecules, sites or subunits per partner or assembly.

On to “SAM complex (Sorting and Assembly Machinery complex) from Myceliophthora thermophila: Sam50, Sam35 and Sam37”, for which the stoichiometry N was found to be 2.

For the origin of these results see article PMC7335169.
